Data on 16 molecules can be found in patent US10005829B2, “Synthetic linear apelin mimetics for the treatment of heart failure” (priority 2012, dated 2018).

Where a SMILES comes first, the peptide text is derived from it. [ ]: non-standard residue; d: D form. The star is where a group is joined. Pro(trans-4-Ph) = O=C(O)[C@@H]1C[C@@H](c2ccccc2)CN1; Cha = N[C@@H](CC1CCCCC1)C(=O)O; pGlu = O=C1CC[C@@H](C(=O)O)N1; dNle = CCCC[C@@H](N)C(=O)O; dNva = CCC[C@@H](N)C(=O)O; Bn = c1ccc(C*)cc1

B1: pE-R-P-R-L-d-H-K-G-P-nle-a-f-OH (peptide)
peptide: [pGlu]RPRL[dD]HKGP[dNle][dA][dF]-OH
SMILES: CCCC[C@@H](NC(=O)[C@@H]1CCCN1C(=O)CNC(=O)[C@H](CCCCN)NC(=O)[C@H](Cc1c[nH]cn1)NC(=O)[C@@H](CC(=O)O)NC(=O)[C@H](CC(C)C)NC(=O)[C@H](CCCNC(=N)N)NC(=O)[C@@H]1CCCN1C(=O)[C@H](CCCNC(=N)N)NC(=O)[C@@H]1CCC(=O)N1)C(=O)N[C@H](C)C(=O)N[C@H](Cc1ccccc1)C(=O)O
B2: pE-R-P-R-L-a-H-K-D-P-nle-a-f-OH (peptide)
peptide: [pGlu]RPRL[dA]HKDP[dNle][dA][dF]-OH
SMILES: CCCC[C@@H](NC(=O)[C@@H]1CCCN1C(=O)[C@H](CC(=O)O)NC(=O)[C@H](CCCCN)NC(=O)[C@H](Cc1c[nH]cn1)NC(=O)[C@@H](C)NC(=O)[C@H](CC(C)C)NC(=O)[C@H](CCCNC(=N)N)NC(=O)[C@@H]1CCCN1C(=O)[C@H](CCCNC(=N)N)NC(=O)[C@@H]1CCC(=O)N1)C(=O)N[C@H](C)C(=O)N[C@H](Cc1ccccc1)C(=O)O
B3: pE-R-P-R-L-S-f-K-G-P-nle-a-f-OH (peptide)
peptide: [pGlu]RPRLS[dF]KGP[dNle][dA][dF]-OH
SMILES: CCCC[C@@H](NC(=O)[C@@H]1CCCN1C(=O)CNC(=O)[C@H](CCCCN)NC(=O)[C@@H](Cc1ccccc1)NC(=O)[C@H](CO)NC(=O)[C@H](CC(C)C)NC(=O)[C@H](CCCNC(=N)N)NC(=O)[C@@H]1CCCN1C(=O)[C@H](CCCNC(=N)N)NC(=O)[C@@H]1CCC(=O)N1)C(=O)N[C@H](C)C(=O)N[C@H](Cc1ccccc1)C(=O)O
B4: pE-R-P-R-L-S-h-K-G-P-nle-a-f-OH (peptide)
peptide: [pGlu]RPRLS[dH]KGP[dNle][dA][dF]-OH
SMILES: CCCC[C@@H](NC(=O)[C@@H]1CCCN1C(=O)CNC(=O)[C@H](CCCCN)NC(=O)[C@@H](Cc1c[nH]cn1)NC(=O)[C@H](CO)NC(=O)[C@H](CC(C)C)NC(=O)[C@H](CCCNC(=N)N)NC(=O)[C@@H]1CCCN1C(=O)[C@H](CCCNC(=N)N)NC(=O)[C@@H]1CCC(=O)N1)C(=O)N[C@H](C)C(=O)N[C@H](Cc1ccccc1)C(=O)O
B5: pE-R-P-R-L-a-H-E-G-P-nle-a-f-OH (peptide)
peptide: [pGlu]RPRL[dA]HEGP[dNle][dA][dF]-OH
SMILES: CCCC[C@@H](NC(=O)[C@@H]1CCCN1C(=O)CNC(=O)[C@H](CCC(=O)O)NC(=O)[C@H](Cc1c[nH]cn1)NC(=O)[C@@H](C)NC(=O)[C@H](CC(C)C)NC(=O)[C@H](CCCNC(=N)N)NC(=O)[C@@H]1CCCN1C(=O)[C@H](CCCNC(=N)N)NC(=O)[C@@H]1CCC(=O)N1)C(=O)N[C@H](C)C(=O)N[C@H](Cc1ccccc1)C(=O)O
B6: pE-R-P-R-L-a-H-K-G-P-f-a-f-OH (peptide)
peptide: [pGlu]RPRL[dA]HKGP[dF][dA][dF]-OH
SMILES: CC(C)C[C@H](NC(=O)[C@H](CCCNC(=N)N)NC(=O)[C@@H]1CCCN1C(=O)[C@H](CCCNC(=N)N)NC(=O)[C@@H]1CCC(=O)N1)C(=O)N[C@H](C)C(=O)N[C@@H](Cc1c[nH]cn1)C(=O)N[C@@H](CCCCN)C(=O)NCC(=O)N1CCC[C@H]1C(=O)N[C@H](Cc1ccccc1)C(=O)N[C@H](C)C(=O)N[C@H](Cc1ccccc1)C(=O)O
B7: pE-R-P-R-Cha-nva-H-K-G-P-nle-a-f-OH (peptide)
peptide: [pGlu]RPR[Cha][dNva]HKGP[dNle][dA][dF]-OH
SMILES: CCCC[C@@H](NC(=O)[C@@H]1CCCN1C(=O)CNC(=O)[C@H](CCCCN)NC(=O)[C@H](Cc1c[nH]cn1)NC(=O)[C@@H](CCC)NC(=O)[C@H](CC1CCCCC1)NC(=O)[C@H](CCCNC(=N)N)NC(=O)[C@@H]1CCCN1C(=O)[C@H](CCCNC(=N)N)NC(=O)[C@@H]1CCC(=O)N1)C(=O)N[C@H](C)C(=O)N[C@H](Cc1ccccc1)C(=O)O
B8: pE-R-P-R-L-a-H-Q-G-P-nle-a-f-OH (peptide)
peptide: [pGlu]RPRL[dA]HQGP[dNle][dA][dF]-OH
SMILES: CCCC[C@@H](NC(=O)[C@@H]1CCCN1C(=O)CNC(=O)[C@H](CCC(N)=O)NC(=O)[C@H](Cc1c[nH]cn1)NC(=O)[C@@H](C)NC(=O)[C@H](CC(C)C)NC(=O)[C@H](CCCNC(=N)N)NC(=O)[C@@H]1CCCN1C(=O)[C@H](CCCNC(=N)N)NC(=O)[C@@H]1CCC(=O)N1)C(=O)N[C@H](C)C(=O)N[C@H](Cc1ccccc1)C(=O)O
B9: pE-R-P-R-L-a-H-K-G-P-nva-a-f-OH (peptide)
peptide: [pGlu]RPRL[dA]HKGP[dNva][dA][dF]-OH
SMILES: CCC[C@@H](NC(=O)[C@@H]1CCCN1C(=O)CNC(=O)[C@H](CCCCN)NC(=O)[C@H](Cc1c[nH]cn1)NC(=O)[C@@H](C)NC(=O)[C@H](CC(C)C)NC(=O)[C@H](CCCNC(=N)N)NC(=O)[C@@H]1CCCN1C(=O)[C@H](CCCNC(=N)N)NC(=O)[C@@H]1CCC(=O)N1)C(=O)N[C@H](C)C(=O)N[C@H](Cc1ccccc1)C(=O)O
B10: pE-R-P-R-L-v-H-K-G-P-nle-a-f-OH (peptide)
peptide: [pGlu]RPRL[dV]HKGP[dNle][dA][dF]-OH
SMILES: CCCC[C@@H](NC(=O)[C@@H]1CCCN1C(=O)CNC(=O)[C@H](CCCCN)NC(=O)[C@H](Cc1c[nH]cn1)NC(=O)[C@H](NC(=O)[C@H](CC(C)C)NC(=O)[C@H](CCCNC(=N)N)NC(=O)[C@@H]1CCCN1C(=O)[C@H](CCCNC(=N)N)NC(=O)[C@@H]1CCC(=O)N1)C(C)C)C(=O)N[C@H](C)C(=O)N[C@H](Cc1ccccc1)C(=O)O
B11: pE-R-P-R-L-a-H-K-G-P-nle-nva-f-OH (peptide)
peptide: [pGlu]RPRL[dA]HKGP[dNle][dNva][dF]-OH
SMILES: CCCC[C@@H](NC(=O)[C@@H]1CCCN1C(=O)CNC(=O)[C@H](CCCCN)NC(=O)[C@H](Cc1c[nH]cn1)NC(=O)[C@@H](C)NC(=O)[C@H](CC(C)C)NC(=O)[C@H](CCCNC(=N)N)NC(=O)[C@@H]1CCCN1C(=O)[C@H](CCCNC(=N)N)NC(=O)[C@@H]1CCC(=O)N1)C(=O)N[C@H](CCC)C(=O)N[C@H](Cc1ccccc1)C(=O)O

One data set addresses T1, APJ receptor (human, UniProt P35414 1-380).
T1 sequence (looked up): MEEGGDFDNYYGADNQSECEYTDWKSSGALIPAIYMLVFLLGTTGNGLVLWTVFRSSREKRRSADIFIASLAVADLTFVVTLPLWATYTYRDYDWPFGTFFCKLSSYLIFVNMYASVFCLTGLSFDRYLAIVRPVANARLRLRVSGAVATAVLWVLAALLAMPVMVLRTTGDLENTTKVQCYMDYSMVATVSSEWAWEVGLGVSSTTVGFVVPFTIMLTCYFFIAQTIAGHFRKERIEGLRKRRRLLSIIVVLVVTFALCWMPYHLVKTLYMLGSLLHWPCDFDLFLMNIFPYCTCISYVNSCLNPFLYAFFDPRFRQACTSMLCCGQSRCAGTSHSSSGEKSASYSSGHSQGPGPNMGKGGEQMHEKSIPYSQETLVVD
The experiment in a line: cell-based or functional assay.
Conditions: not given
Turning to B1, the “hAPJ Ca^2+ Flux EC50” value came out at 7.7 nM.

B2: the “hAPJ Ca^2+ Flux EC50” value worked out at 95.9 nM.

Consider [pGlu]RPRLA[dH]KGP[dNle][dA][dF]-OH [pE-R-P-R-L-A-h-K-G-P-nle-a-f-OH], for which the “hAPJ Ca^2+ Flux EC50” value stood at 55.1 nM.

As for B3, the “hAPJ Ca^2+ Flux EC50” value is 72.8 nM.

As to B4, the “hAPJ Ca^2+ Flux EC50” value was 6.8 nM.

Turning to B5, the “hAPJ Ca^2+ Flux EC50” value amounted to 200 nM.

With [pGlu]R[Pro(trans-4-Ph)]RL[dA]HKGP[dNle][dA][dF]-OH [pE-R-(trans-4-PhP)-R-L-a-H-K-G-P-nle-a-f-OH], the “hAPJ Ca^2+ Flux EC50” value came out at 9.9 nM.

For the molecule B6, the “hAPJ Ca^2+ Flux EC50” value amounted to 1.5 nM.

Take B7: the “hAPJ Ca^2+ Flux EC50” value was determined as 9.4 nM.

Turning to B8, the “hAPJ Ca^2+ Flux EC50” value worked out at 7.4 nM.

Turning to B9, the “hAPJ Ca^2+ Flux EC50” value is 8.7 nM.

For the molecule ERPRLAHKGPLF (pE at 1; D-Ala at 6; D-Nle at 11; D-Phe at 12) [pE-R-P-R-L-a-H-K-G-P-nle-f-OH], the “hAPJ Ca^2+ Flux EC50” value amounted to 3.1 nM.

B10: the “hAPJ Ca^2+ Flux EC50” value came to 7.9 nM.

As to B11, the “hAPJ Ca^2+ Flux EC50” value is 0.9 nM.

Regarding [pGlu]RPRL[dCys(tBu)]HKGP[dNle][dA][dF]-OH [pE-R-P-R-L-c(tBu)-H-K-G-P-nle-a-f-OH], the “hAPJ Ca^2+ Flux EC50” value amounted to 693 nM.

System in another data set: not listed separately
The experiment in a line: Surrogate activity-based plasma stability assay. The class given is in vitro ADME. To be noted: 5% rat plasma, 37° C., EC50 at t0 and t24 hrs; Table 2.
Protocol: • Stability assay: stability half-life, (t ½), values were determined by converting peak areas at each time point to percent remaining relative to initial (t=0) peak area. Percent remaining=100×(sample peak area)÷(t=0 peak area) • The natural log of percent remaining values were calculated and plotted against sample time (Microsoft Excel). The slope of this line, k, was determined by linear regression (Microsoft Excel). • Stability half-life was then calculated by the formula, t ½=0.693÷k Surrogate Activity-based Plasma Stability Assay:
The calcium flux protocol described above was followed, with the following changes. The peptides were also incubated with 5% rat plasma (Bioreclamation # [sequence]-M, Na Heparin-treated). Readings were taken at time points t0 and t24 hrs, after incubation in a 37° C. tissue culture incubator. Peptide plasma half-life in minutes was estimated by calculating the following:
Take `CCCC[C@@H](NC(=O)[C@@H]1CCCN1C(=O)CNC(=O)[C@H](CCCCN)NC(=O)[C@H](Cc1c[nH]cn1)NC(=O)[C@@H](C)NC(=O)[C@H](Cc1ccc(OCc2ccccc2)cc1)NC(=O)[C@H](CCCNC(=N)N)NC(=O)[C@@H]1CCCN1C(=O)[C@H](CCCNC(=N)N)NC(=O)[C@@H]1CCC(=O)N1)C(=O)N[C@H](C)C(=O)N[C@H](Cc1ccccc1)C(=O)O` [Example 27, pE-R-P-R-Y(Bzl)-a-H-K-G-P-nle-a-f-OH] ([pGlu]RPRY(Bn)[dA]HKGP[dNle][dA][dF]-OH): the “Surrogate activity-based Plasma stability t½” value was 5.815 h.
